{"source": "patent US20250035633A1", "about": "(published 2025)", "binders": {"B1": {"name": "m7C5 (antibody, V domains shown)", "VH": "QVQLQQSGAELARPGASVKLSCKASGYTFTSYGLSWVKQRTGQGLEWIGEIFPRSGNSYYNEKFKGKAALTADKSSSTAYMQLSSLTSEDSAVYFCARHYYSSLYYAMDYWGQGTSVTVSS", "VL": "DIQVTQSPASLSASVGESVSITCGTNENLYGALNWYQRKQGKSPQLLIYGATNLADGMSSRFSGSGSGRQYSLKISSLHPDDVATYYCQNVLSTPRTFGGGTKLEIK"}, "B2": {"name": "mLic3 (antibody, V domains shown)", "VH": "EVQLVESGGGLVKPGGSLKLSCAASGFSFSDYYMYWVRQAPEKRLEWVASISFDGTYTYYTDRVKGRFTISRDNAKNNLYLQMSSLKSEDTAMYYCARDRPAWFPYWGQGTLVTVSA", "VL": "DVLMTQIPLSLTVSLGDQASISCRSSQSIVHSNGNTYLEWYLQRPGQSPKLLIYKVSNRFSGVPDRFSGSGSGTDFTLKISRVEAEDLGVYYCFQGSHVPLTFGAGTKLELK"}}, "key": {"recombinant CDH17-hFc [1]": {"target": "T1, recombinant CDH17-hFc (human, UniProt Q12864 23-787)", "T1 sequence (Q12864 23-787)": "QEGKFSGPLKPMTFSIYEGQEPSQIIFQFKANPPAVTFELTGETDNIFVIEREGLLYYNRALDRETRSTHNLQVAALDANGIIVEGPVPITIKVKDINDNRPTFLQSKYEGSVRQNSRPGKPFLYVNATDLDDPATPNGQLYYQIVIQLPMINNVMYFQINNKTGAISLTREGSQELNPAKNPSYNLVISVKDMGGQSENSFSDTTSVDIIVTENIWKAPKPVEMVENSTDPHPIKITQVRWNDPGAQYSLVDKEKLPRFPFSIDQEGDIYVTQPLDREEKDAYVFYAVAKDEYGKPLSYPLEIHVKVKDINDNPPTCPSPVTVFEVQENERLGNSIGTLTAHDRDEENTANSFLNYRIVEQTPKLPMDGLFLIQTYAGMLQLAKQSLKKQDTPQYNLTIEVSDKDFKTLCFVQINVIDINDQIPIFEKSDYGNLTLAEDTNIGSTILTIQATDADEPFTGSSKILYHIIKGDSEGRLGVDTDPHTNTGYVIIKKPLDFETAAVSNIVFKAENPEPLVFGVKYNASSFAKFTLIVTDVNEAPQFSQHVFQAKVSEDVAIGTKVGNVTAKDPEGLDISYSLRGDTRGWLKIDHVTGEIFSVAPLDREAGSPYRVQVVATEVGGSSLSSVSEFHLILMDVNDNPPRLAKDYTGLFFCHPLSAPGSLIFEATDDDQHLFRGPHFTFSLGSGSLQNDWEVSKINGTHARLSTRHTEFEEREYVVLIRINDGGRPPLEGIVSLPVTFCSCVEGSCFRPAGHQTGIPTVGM", "test": "ELISA"}, "recombinant CDH17-hFc [2]": {"target": "T1, recombinant CDH17-hFc", "test": "OCTET BLI"}, "recombinant CDH17-hFc [3]": {"target": "T1, recombinant CDH17-hFc", "test": "ELISA", "remark": "listed apart in the source"}, "recombinant CDH17-hFc [4]": {"target": "T1, recombinant CDH17-hFc", "test": "OCTET BLI", "remark": "listed apart in the source"}}, "note": "Where two headings read alike, the source gives them in different places.", "data": [{"binder": "B1", "values": [{"measurement": "EC50", "setting": "recombinant CDH17-hFc [1]", "result": 4.2, "unit": "ng/mL"}, {"measurement": "Kd", "setting": "recombinant CDH17-hFc [2]", "result": 20.6, "unit": "nM"}]}, {"binder": "B2", "values": [{"measurement": "EC50", "setting": "recombinant CDH17-hFc [3]", "result": 7.9, "unit": "ng/mL"}, {"measurement": "Kd", "setting": "recombinant CDH17-hFc [4]", "result": 10.9, "unit": "nM"}]}]}
